Measured values published in the Immune Epitope Database (IEDB).

How the values were obtained:
HLA-A*24:02 = experiment: IEDB peptide-MHC binding, purified MHC/competitive/fluorescence; ≥ and ≤ were set here for values at or beyond the usual limits of such assays
HLA-B*08:01 = experiment: as above
HLA-A*68:02 [1] = experiment: IEDB peptide-MHC binding, purified MHC/competitive/fluorescence; filed as Kd, often an IC50 or EC50 that approximates it; ≥ and ≤ were set here for values at or beyond the usual limits of such assays
HLA-A*02:06 = experiment: as above; settings: source organism: Human immunodeficiency virus 1
HLA-A*02:03 [2] = experiment: as above
HLA-A*69:01 = experiment: as above
HLA-B*39:01 = experiment: as above
HLA-A*31:01 = experiment: as above; settings: source organism: Human immunodeficiency virus 1
HLA-A*30:01 = experiment: as above; settings: source organism: Human immunodeficiency virus 1
HLA-A*02:01 [3] = experiment: as above
HLA-A*02:16 [4] = experiment: as above; settings: source organism: Burkholderia pseudomallei K96243
HLA-B*15:01 [5] = experiment: IEDB peptide-MHC binding, purified MHC/competitive/fluorescence; ≥ and ≤ were set here for values at or beyond the usual limits of such assays
HLA-B*07:02 = experiment: as above
HLA-A*02:01 [6] = experiment: as above
HLA-A*01:01 [7] = experiment: IEDB peptide-MHC binding, purified MHC/competitive/fluorescence; filed as Kd, often an IC50 or EC50 that approximates it; ≥ and ≤ were set here for values at or beyond the usual limits of such assays
HLA-A*26:01 = experiment: as above
HLA-B*51:01 = experiment: as above
HLA-B*18:01 = experiment: as above
HLA-A*02:12 [8] = experiment: as above
HLA-A*03:01 [9] = experiment: as above
HLA-B*27:03 = experiment: as above
HLA-A*29:02 [10] = experiment: as above
HLA-A*02:19 [11] = experiment: as above
HLA-B*15:17 = experiment: as above
HLA-B*15:01 [12] = experiment: as above
HLA-B*57:01 = experiment: as above
HLA-A*24:03 = experiment: as above
HLA-B*46:01 = experiment: as above
HLA-A*01:01 [13] = experiment: IEDB peptide-MHC binding, purified MHC/competitive/fluorescence; ≥ and ≤ were set here for values at or beyond the usual limits of such assays
HLA-A*02:12 [14] = experiment: IEDB peptide-MHC binding, purified MHC/direct/fluorescence; filed as Kd, often an IC50 or EC50 that approximates it; ≥ and ≤ were set here for values at or beyond the usual limits of such assays
HLA-A*03:01 [15] = experiment: as above
HLA-A*02:11 = experiment: as above
HLA-A*68:02 [16] = experiment: as above
HLA-A*01:01 [17] = experiment: as above; settings: source organism: Ebola virus - Eckron (Zaire, 1976)
HLA-A*29:02 [18] = experiment: as above; settings: source organism: Zaire ebolavirus
HLA-A*02:19 [19] = experiment: as above
HLA-A*02:16 [20] = experiment: as above; settings: source organism: Orthohantavirus andesense
HLA-A*02:03 [21] = experiment: as above; settings: source organism: Orthohantavirus andesense
HLA-A*03:01 [22] = experiment: IEDB peptide-MHC binding, purified MHC/competitive/fluorescence; ≥ and ≤ were set here for values at or beyond the usual limits of such assays; settings: source organism: Vaccinia virus
HLA-A*11:01 = experiment: as above; settings: source organism: Vaccinia virus
[23] = source organism: Human immunodeficiency virus 1
[24] = source organism: Zaire ebolavirus
[25] = source organism: Vaccinia virus
[26] = source organism: Cryptosporidium parvum Iowa II
[27] = source organism: Entamoeba dispar SAW760
[28] = source organism: Measles morbillivirus
[29] = source organism: Vaccinia virus Copenhagen
[30] = source organism: Orthohantavirus andesense

DFHERPVIL
IC50 (HLA-A*24:02; source organism: Variola virus): 0.0313 µM
IC50 (HLA-B*08:01; source organism: Variola virus): ≥ 88.5 µM

EELRSLFNTI
Kd (HLA-A*68:02 [1]; [23]): ≥ 20 µM
Kd (HLA-A*02:06): 1.14 µM
Kd (HLA-A*02:03 [2]; [23]): ≥ 20 µM

EELRSLFNTV
Kd (HLA-A*69:01; [23]): 0.301 µM
Kd (HLA-A*68:02 [1]; [23]): 0.325 µM
Kd (HLA-A*02:06): 0.302 µM

EKLKSLFNTI
Kd (HLA-B*39:01; [23]): 0.641 µM
Kd (HLA-A*31:01): ≥ 20 µM
Kd (HLA-A*68:02 [1]; [23]): ≥ 20 µM
Kd (HLA-A*02:06): 0.00183 µM
Kd (HLA-A*30:01): 0.0207 µM
Kd (HLA-A*02:03 [2]; [23]): 0.0368 µM
Kd (HLA-A*02:01 [3]; [23]): ≥ 20 µM

ELAKPWPGA
Kd (HLA-A*02:16 [4]): ≥ 20 µM
Kd (HLA-A*02:01 [3]; source organism: Burkholderia pseudomallei K96243): 1.21 µM

FSILNRKAI
IC50 (HLA-A*24:02; [24]): 5.56 µM
IC50 (HLA-B*15:01 [5]; [24]): 35.8 µM
IC50 (HLA-B*07:02; [24]): 46.5 µM
IC50 (HLA-B*08:01; [24]): 21.6 µM
IC50 (HLA-A*02:01 [6]; [24]): ≥ 235 µM

HSDTAKAFA
Kd (HLA-A*01:01 [7]; source organism: Escherichia coli): ≥ 20 µM

INPIVKTSL
IC50 (HLA-B*07:02; [25]): 21.1 µM
IC50 (HLA-B*08:01; [25]): ≥ 88.4 µM

KIFKVTGEF
Kd (HLA-A*26:01; [26]): ≥ 20 µM
Kd (HLA-B*51:01; [26]): ≥ 20 µM
Kd (HLA-B*18:01; [26]): ≥ 20 µM
Kd (HLA-A*69:01; [26]): ≥ 20 µM
Kd (HLA-A*02:12 [8]; [26]): ≥ 20 µM
Kd (HLA-A*03:01 [9]; [26]): ≥ 20 µM
Kd (HLA-B*27:03; [26]): ≥ 20 µM
Kd (HLA-B*39:01; [26]): ≥ 20 µM
Kd (HLA-A*68:02 [1]; [26]): ≥ 20 µM
Kd (HLA-A*29:02 [10]; [26]): 0.735 µM
Kd (HLA-A*02:03 [2]; [26]): ≥ 20 µM
Kd (HLA-A*02:01 [3]; [26]): ≥ 20 µM
Kd (HLA-A*02:19 [11]; [26]): ≥ 20 µM

KSLYNTVATLY
Kd (HLA-B*18:01; [23]): ≥ 20 µM
Kd (HLA-B*15:17; [23]): 0.0064 µM
Kd (HLA-B*15:01 [12]; [23]): ≥ 20 µM
Kd (HLA-A*01:01 [7]; [23]): ≥ 20 µM
Kd (HLA-A*30:01): ≥ 20 µM
Kd (HLA-A*02:03 [2]; [23]): ≥ 20 µM
Kd (HLA-B*57:01; [23]): 0.959 µM

LVGNTLTTC
Kd (HLA-A*26:01; [27]): ≥ 20 µM
Kd (HLA-B*51:01; [27]): ≥ 20 µM
Kd (HLA-B*18:01; [27]): ≥ 20 µM
Kd (HLA-A*24:03; [27]): ≥ 20 µM
Kd (HLA-A*02:12 [8]; [27]): 4.55 µM
Kd (HLA-A*03:01 [9]; [27]): ≥ 20 µM
Kd (HLA-B*27:03; [27]): ≥ 20 µM
Kd (HLA-B*39:01; [27]): ≥ 20 µM
Kd (HLA-B*15:01 [12]; [27]): ≥ 20 µM
Kd (HLA-B*46:01; [27]): ≥ 20 µM
Kd (HLA-A*29:02 [10]; [27]): ≥ 20 µM
Kd (HLA-A*02:03 [2]; [27]): ≥ 20 µM
Kd (HLA-A*02:01 [3]; [27]): ≥ 20 µM
Kd (HLA-B*57:01; [27]): ≥ 20 µM
Kd (HLA-A*02:19 [11]; [27]): ≥ 20 µM

NSTHNTPVY
IC50 (HLA-B*15:01 [5]; [24]): ≥ 119 µM
IC50 (HLA-A*01:01 [13]; [24]): 29.1 µM
Kd (HLA-A*02:12 [14]; [24]): ≥ 20 µM
Kd (HLA-A*03:01 [15]; [24]): ≥ 20 µM
Kd (HLA-A*02:11; [24]): ≥ 20 µM
Kd (HLA-A*68:02 [16]; [24]): ≥ 20 µM
Kd (HLA-A*01:01 [17]): ≥ 20 µM
Kd (HLA-A*29:02 [18]): ≥ 20 µM
Kd (HLA-A*02:19 [19]; [24]): ≥ 20 µM
Kd (HLA-A*26:01; [24]): ≥ 20 µM
Kd (HLA-B*51:01; [24]): ≥ 20 µM
Kd (HLA-B*18:01; [24]): ≥ 20 µM
Kd (HLA-A*69:01; [24]): ≥ 20 µM
Kd (HLA-B*15:17; [24]): ≥ 20 µM
Kd (HLA-B*27:03; [24]): ≥ 20 µM
Kd (HLA-B*39:01; [24]): ≥ 20 µM
Kd (HLA-B*46:01; [24]): ≥ 20 µM
Kd (HLA-A*02:01 [3]; [24]): ≥ 20 µM
Kd (HLA-B*57:01; [24]): ≥ 20 µM

SFSYFYPFR
Kd (HLA-A*01:01 [7]; [28]): ≥ 20 µM
Kd (HLA-A*29:02 [10]; [28]): 0.458 µM

TFALKKLII
IC50 (HLA-A*24:02; [29]): 0.323 µM
IC50 (HLA-B*08:01; [29]): ≥ 132 µM
IC50 (HLA-A*02:01 [6]; [29]): ≥ 131 µM

VRQRVIPVY
IC50 (HLA-A*24:02; [24]): 23.4 µM
IC50 (HLA-B*15:01 [5]; [24]): 3.26 µM
IC50 (HLA-B*08:01; [24]): ≥ 210 µM
IC50 (HLA-A*02:01 [6]; [24]): ≥ 524 µM

VWKQLFPEL
Kd (HLA-A*02:12 [14]; [30]): ≥ 20 µM
Kd (HLA-A*03:01 [15]; [30]): ≥ 20 µM
Kd (HLA-A*02:11; [30]): ≥ 20 µM
Kd (HLA-A*68:02 [16]; [30]): ≥ 20 µM
Kd (HLA-A*02:16 [20]): ≥ 20 µM
Kd (HLA-A*02:03 [21]): ≥ 20 µM
Kd (HLA-A*02:19 [19]; [30]): ≥ 20 µM
Kd (HLA-A*26:01; [30]): ≥ 20 µM
Kd (HLA-B*51:01; [30]): ≥ 20 µM
Kd (HLA-B*18:01; [30]): ≥ 20 µM
Kd (HLA-A*69:01; [30]): ≥ 20 µM
Kd (HLA-A*24:03; [30]): 0.0105 µM
Kd (HLA-B*15:17; [30]): ≥ 20 µM
Kd (HLA-B*27:03; [30]): ≥ 20 µM
Kd (HLA-B*39:01; [30]): ≥ 20 µM
Kd (HLA-B*46:01; [30]): ≥ 20 µM
Kd (HLA-A*02:01 [3]; [30]): ≥ 20 µM
Kd (HLA-B*57:01; [30]): ≥ 20 µM

WAMEKSSKY
IC50 (HLA-A*03:01 [22]): ≥ 265 µM
IC50 (HLA-B*15:01 [5]; [25]): 9.18 µM
IC50 (HLA-A*01:01 [13]; [25]): 36.8 µM
IC50 (HLA-B*07:02; [25]): ≥ 624 µM
IC50 (HLA-A*11:01): ≥ 130 µM
IC50 (HLA-A*02:01 [6]; [25]): ≥ 122 µM
